Patent publication US11260115B1, “Peptides and combination of peptides for use in immunotherapy against CLL and other cancers” (immatics biotechnologies GmbH, priority 2015, dated 2022)

Target: HLA-A*02:01 (Homo sapiens, UniProt P04439, D140Y/D185E/D98H/E176V/E277Q/G131W/G231S/I119V/I121R/I166T/I218V/L300P/L318F/N151K/N90K/P208A/P217A/Q86G/Q94H/R138H/R169H/T345S)
Test: MHC binding assay (UV-ligand exchange, β2m ELISA, peptide exchange yield)
Details: binding to HLA-A*02:01
Excerpt: Candidate peptides for T cell based therapies according to the present invention were further tested for their MHC binding capacity (affinity). The individual peptide-MHC complexes were produced by UV-ligand exchange, where a UV-sensitive peptide is cleaved upon UV-irradiation, and exchanged with the peptide of interest as analyzed. Only peptide candidates that can effectively bind and stabilize the peptide-receptive MHC molecules prevent dissociation of the MHC complexes. To determine the yield of the exchange reaction, an ELISA was performed based on the detection of the light chain (β2m) of stabilized MHC complexes. The assay was performed as generally described in Rodenko et al. (Rodenko et al., 2006).
96 well MAXISorp plates (NUNC) were coated over night with 2 ug/ml streptavidin in PBS at room temperature, washed 4× and blocked for 1 h at 37° C. in 2% BSA containing blocking buffer. Refolded HLA-A*02:01/MLA-001 monomers served as standards, covering the range of 15-500 ng/ml. Peptide-MHC monomers of the UV-exchange reaction were diluted 100 fold in blocking buffer. Samples were incubated for 1 h at 37° C., washed four times, incubated with 2 ug/ml HRP conjugated anti-β2m for 1 h at 37° C., washed again and detected with TMB solution that is stopped with […]. Absorption was measured at 450 nm. Candidate peptides that show a high exchange yield (preferably higher than 50%, most preferred higher than 75%) are generally preferred for a generation and production of antibodies or fragments thereof, and/or T cell receptors or fragments thereof, as they show sufficient avidity to the MHC molecules and prevent dissociation of the MHC complexes.
Table 11: MHC class I binding scores. Binding of HLA-class I restricted peptides to HLA-A*02:01 was ranged by peptide exchange yield: ≥10%=+; ≥20%=++; ≥50=+++; ≥75%=++++

Row | Peptide Exchange (MHC class I binding score, peptide exchange yield) | Substance
1 | “+” (>10% = +) | 130 (LLVLIPVYL; listed as Homo sapiens) [compound 130]
2 | “+” (>10% = +) | 131 (LQALEVLKI; listed as Homo sapiens) [compound 131]
3 | “+++” (>50 = +++) | 132 (LVYEAIIMV; listed as Homo sapiens) [compound 132]
4 | “+++” (>50 = +++) | 133 (YLLSGDISEA; listed as Homo sapiens) [compound 133]
5 | “++++” (>75% = ++++) | 134 (MLLEHGITLV; listed as Homo sapiens) [compound 134]
6 | “+” (>10% = +) | 135 (MTAGFSTIAGSV; listed as Homo sapiens) [compound 135]
7 | “++” (>20% = ++) | 136 (NLDKLWTLV; listed as Homo sapiens) [compound 136]
8 | “+++” (>50 = +++) | 137 (NLIKTVIKL; listed as Homo sapiens) [compound 137]
9 | “+++” (>50 = +++) | 138 (NLLDIDAPVTV; listed as Homo sapiens) [compound 138]
10 | “+++” (>50 = +++) | 139 (NLTDVVEKL; listed as Homo sapiens) [compound 139]
11 | “+++” (>50 = +++) | 140 (QIAELPATSV; listed as Homo sapiens) [compound 140]
12 | “++” (>20% = ++) | 141 (QILSEIVEA; listed as Homo sapiens) [compound 141]
13 | “++” (>20% = ++) | 142 (QLDEPAPQV; listed as Homo sapiens) [compound 142]
14 | “+++” (>50 = +++) | 143 (QLLDTYFTL; listed as Homo sapiens) [compound 143]
15 | “+++” (>50 = +++) | 145 (SALDTITTV; listed as Homo sapiens) [compound 145]
16 | “+++” (>50 = +++) | 146 (SIIEGPIIKL; listed as Homo sapiens) [compound 146]
17 | “+++” (>50 = +++) | 147 (SILETVATL; listed as Homo sapiens) [compound 147]
18 | “+++” (>50 = +++) | 148 (SIVASLITV; listed as Homo sapiens) [compound 148]
19 | “+++” (>50 = +++) | 149 (SLDNGGYYI; listed as Homo sapiens) [compound 149]
20 | “+++” (>50 = +++) | 150 (SLFDQPLSII; listed as Homo sapiens) [compound 150]

Row | Peptide Exchange (MHC class I binding score, peptide exchange yield) | Substance
21 | “+++” (>50 = +++) | 151 (SLFDSAYGA; listed as Homo sapiens) [compound 151]
22 | “+++” (>50 = +++) | 152 (SLIRILQTI; listed as Homo sapiens) [compound 152]
23 | “+++” (>50 = +++) | 153 (SLLAELHVL; listed as Homo sapiens) [compound 153]
24 | “+++” (>50 = +++) | 155 (SLMLEVPAL; listed as Homo sapiens) [compound 155]
25 | “+++” (>50 = +++) | 156 (SLNIGDVQL; listed as Homo sapiens) [compound 156]
26 | “+++” (>50 = +++) | 157 (SLNIRDFTM; listed as Homo sapiens) [compound 157]
27 | “+++” (>50 = +++) | 158 (SLPEAPLDV; listed as Homo sapiens) [compound 158]
28 | “+++” (>50 = +++) | 159 (SLQEEKLIYV; listed as Homo sapiens) [compound 159]
29 | “+++” (>50 = +++) | 160 (SLSFLVPSL; listed as Homo sapiens) [compound 160]
30 | “+++” (>50 = +++) | 161 (SMDDGMINV; listed as Homo sapiens) [compound 161]
31 | “++” (>20% = ++) | 162 (SMKDDLENV; listed as Homo sapiens) [compound 162]
32 | “+++” (>50 = +++) | 163 (SQLDISEPYKV; listed as Homo sapiens) [compound 163]
33 | “+++” (>50 = +++) | 164 (SVHKGFAFV; listed as Homo sapiens) [compound 164]
34 | “++” (>20% = ++) | 165 (TLDDDLDTV; listed as Homo sapiens) [compound 165]
35 | “++” (>20% = ++) | 166 (TLDPNQVSL; listed as Homo sapiens) [compound 166]
36 | “+++” (>50 = +++) | 167 (TLDTSKLYV; listed as Homo sapiens) [compound 167]
37 | “++++” (>75% = ++++) | 168 (YLLDQSFVM; listed as Homo sapiens) [compound 168]
38 | “+++” (>50 = +++) | 169 (TLLLGLTEV; listed as Homo sapiens) [compound 169]
39 | “+++” (>50 = +++) | 170 (TLTFRVETV; listed as Homo sapiens) [compound 170]
40 | “+++” (>50 = +++) | 171 (TLVPPAALISI; listed as Homo sapiens) [compound 171]

Row | Peptide Exchange (MHC class I binding score, peptide exchange yield) | Substance
41 | “+++” (>50 = +++) | 172 (TLYDMLASI; listed as Homo sapiens) [compound 172]
42 | “++” (>20% = ++) | 173 (TVIENIHTI; listed as Homo sapiens) [compound 173]
43 | “+++” (>50 = +++) | 174 (VLAELPIIVV; listed as Homo sapiens) [compound 174]
44 | “+++” (>50 = +++) | 175 (FTVPRVVAV; listed as Homo sapiens) [compound 175]
45 | “+++” (>50 = +++) | 176 (VLAEQNIIPSA; listed as Homo sapiens) [compound 176]
46 | “+++” (>50 = +++) | 177 (VLDDRELLL; listed as Homo sapiens) [compound 177]
47 | “+++” (>50 = +++) | 178 (VLFFNVQEV; listed as Homo sapiens) [compound 178]
48 | “+++” (>50 = +++) | 179 (VLLGLEMTL; listed as Homo sapiens) [compound 179]
49 | “++” (>20% = ++) | 180 (LLKDGPEIGL; listed as Homo sapiens) [compound 180]
50 | “+++” (>50 = +++) | 181 (VLLSIPFVSV; listed as Homo sapiens) [compound 181]
51 | “+++” (>50 = +++) | 182 (VLLSVPGPPV; listed as Homo sapiens) [compound 182]
52 | “+++” (>50 = +++) | 183 (VLMPTVYQQGV; listed as Homo sapiens) [compound 183]
53 | “+++” (>50 = +++) | 184 (VLSHNLYTV; listed as Homo sapiens) [compound 184]
54 | “++” (>20% = ++) | 185 (VMDDQRDLI; listed as Homo sapiens) [compound 185]
55 | “++++” (>75% = ++++) | 186 (VMDPTKILI; listed as Homo sapiens) [compound 186]
56 | “++++” (>75% = ++++) | 187 (VMDTHLVNI; listed as Homo sapiens) [compound 187]
57 | “++” (>20% = ++) | 188 (VMGDIPAAV; listed as Homo sapiens) [compound 188]
58 | “+++” (>50 = +++) | 189 (VMLEMTPEL; listed as Homo sapiens) [compound 189]
59 | “+++” (>50 = +++) | 190 (VVMGTVPRL; listed as Homo sapiens) [compound 190]
60 | “+++” (>50 = +++) | 191 (YIFDGSDGGV; listed as Homo sapiens) [compound 191]
